In this experiment the target is FLAG-tagged V-ATPase a3 subunit (full-length) (UniProt Q9JHF5). Kind of experiment: co-IP; FLAG- and V5-tagged proteins co-expressed in HEK293T cells; lysed 48 h after transfection in IP buffer (1% Triton X-100, 10% glycerol, 50 mM Tris-HCl pH 7.4, 150 mM NaCl, 1 mM dithiothreitol, 1 mM EDTA); precipitated with anti-FLAG antibody; western blot with anti-V5 (or anti-A subunit) antibody.
UniProt Q9JHF5, sequence (Q9JHF5 entry or part of it): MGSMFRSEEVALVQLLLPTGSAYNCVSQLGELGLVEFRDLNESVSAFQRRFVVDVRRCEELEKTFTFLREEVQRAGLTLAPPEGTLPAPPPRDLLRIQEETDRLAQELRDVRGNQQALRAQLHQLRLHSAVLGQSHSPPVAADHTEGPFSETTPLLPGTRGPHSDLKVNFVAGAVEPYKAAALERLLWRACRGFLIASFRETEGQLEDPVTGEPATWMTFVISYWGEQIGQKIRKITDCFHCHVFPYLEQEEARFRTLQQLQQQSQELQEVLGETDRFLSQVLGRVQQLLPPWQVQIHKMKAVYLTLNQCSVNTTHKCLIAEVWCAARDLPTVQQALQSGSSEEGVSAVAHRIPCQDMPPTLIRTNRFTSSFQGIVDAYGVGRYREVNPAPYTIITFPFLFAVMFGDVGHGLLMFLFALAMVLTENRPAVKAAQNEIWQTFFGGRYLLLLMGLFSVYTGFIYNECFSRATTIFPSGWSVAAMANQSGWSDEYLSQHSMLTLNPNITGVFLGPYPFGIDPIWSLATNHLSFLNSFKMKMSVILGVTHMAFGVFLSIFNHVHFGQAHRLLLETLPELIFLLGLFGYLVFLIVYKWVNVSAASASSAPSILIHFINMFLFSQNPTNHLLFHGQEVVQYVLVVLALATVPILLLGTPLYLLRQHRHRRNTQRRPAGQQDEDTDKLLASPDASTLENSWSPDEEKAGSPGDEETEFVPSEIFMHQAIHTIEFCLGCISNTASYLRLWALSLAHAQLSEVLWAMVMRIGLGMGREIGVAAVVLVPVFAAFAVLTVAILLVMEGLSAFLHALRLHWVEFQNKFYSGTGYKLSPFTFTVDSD

As for “V5-tagged GDP-fixed form of Rab7(T22N) (from UniProt P51150 1-207) (natural protein)”, the fold increase of Rab7 co-precipitated with a3 when V5-Mon1A and V5-Ccz1 were exogenously expressed, against without them stood at 3 fold.

The record behind these values is article PMC9120031.
